Data reported in patent US20230374142A1 (MONASH UNIVERSITY, published 2023).

Target: T1, full-length human CLEC9A on transfected 293F cells (human, UniProt Q6UXN8 1-241)
T1 construct: also called cell surface CLEC9A
Assay: flow cytometry on 293F cells transfected with full-length human CLEC9A

T1 sequence (Q6UXN8 whole entry): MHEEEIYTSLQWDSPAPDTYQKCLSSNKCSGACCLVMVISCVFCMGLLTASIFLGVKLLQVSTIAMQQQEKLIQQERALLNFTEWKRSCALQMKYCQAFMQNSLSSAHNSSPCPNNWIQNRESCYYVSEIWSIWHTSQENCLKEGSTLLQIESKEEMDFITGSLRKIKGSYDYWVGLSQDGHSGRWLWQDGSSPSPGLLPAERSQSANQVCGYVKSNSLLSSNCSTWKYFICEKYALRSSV

B1: humanised anti-CLEC9A Ab (Ab1) (antibody, human IgG4 S228P, kappa, V domains shown)
VH: EVQLLESGGGLVQPGGSLRLSCAASGFTFNNYWLAWVRQAPGKGLEWVASITTAAGGTYYPDSVKGRFTISRDNSKNTLYLQMNSLRAEDTAVYYCTRVGRDIWDYWGQGTLVTVSS
VL: DIVMTQTPLSLSVTPGQPASISCKSSQSLLHSDGNTYLHWYLQKPGQPPQLLIWRISNRFSGVPDRFSGSGSGTDFTLKISRVEAEDVGVYYCLQSSHFPPTFGGGTKVEIKR
notes: Human IgG4 / kappa; also called Humanised CLEC9A Ab; humanised anti-CLEC9A antibody
binding result: binds

B2: human/rat chimaeric anti-CLEC9A Ab (clone 4C6) (antibody, V domains shown)
VH: EVQLVESGGGLVQPGGSLKLSCVASGFTFNNYWLAWIRQAPRKGLEWVASITTAAGGTYYPDSVKGRFTISRDNAKSTLYLQMNSLTSEDTATYYCTRVGRDIWDYWGQGVVVTVSS
VL: EILMTQTPVSLPVSLGGQVSFSCRSSQSLLHSDGNTYLHWYLQKPGQSPQLLIWRISNRFSGVPDRFSGSGSGTDFTLKISRVEPEDLGVYYCLQSSHFPPTFGGGTNLEIKR
notes: also called human chimeric anti-Clec9A Ab; original human chimaeric anti-CLEC9A Ab
binding result: binds
